According to US20170313769A1 (Pfizer, published 2017):
Changes are numbered by the printed parent chain.

Key:
[1] = target: T1, CID1281 (human (IFNβ with IFNα sequence inserted), UniProt P01574 22-187); test: cell-based or functional assay
T1 chain: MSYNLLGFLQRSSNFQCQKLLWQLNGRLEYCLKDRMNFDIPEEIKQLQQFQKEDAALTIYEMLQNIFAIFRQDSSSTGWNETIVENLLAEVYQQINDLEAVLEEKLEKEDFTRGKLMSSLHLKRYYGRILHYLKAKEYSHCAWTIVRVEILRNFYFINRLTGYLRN

[2] = target: T2, CID1286 (human (IFNβ with IFNα sequence inserted), UniProt P01574 22-187); test: cell-based or functional assay
T2 chain: T1 chain with E90N, Q93H, D97H, E99K, A100T, H140P

[3] = target: T3, CID1283 (human (IFNβ with IFNα sequence inserted), UniProt P01574 22-187); test: cell-based or functional assay
T3 chain: T1 chain with E90N, Q93H, D97H, E99K, A100T, S119I, K123R, R124K

[4] = target: T4, Rat IFNβ (rat, UniProt P70499 22-184); test: plate ELISA, rat IFNβ coated at 5 µg/mL
T4 sequence: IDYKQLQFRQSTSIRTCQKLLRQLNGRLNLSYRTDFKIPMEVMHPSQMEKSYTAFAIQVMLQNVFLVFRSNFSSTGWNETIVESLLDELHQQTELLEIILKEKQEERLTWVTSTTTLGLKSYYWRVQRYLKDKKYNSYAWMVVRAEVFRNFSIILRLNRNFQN

[5] = target: T5, Human IFNβ (mature human interferon beta) (human, UniProt P01574 22-187); test: Octet (BLI) response rank; method not described
T5 construct: Recombinant human IFNβ (Peprotech for SPR); In some functional assays it is endogenous IFNβ secreted by primary human cells; also called hIFN-β; recombinant human IFNβ
T5 sequence (P01574 22-187): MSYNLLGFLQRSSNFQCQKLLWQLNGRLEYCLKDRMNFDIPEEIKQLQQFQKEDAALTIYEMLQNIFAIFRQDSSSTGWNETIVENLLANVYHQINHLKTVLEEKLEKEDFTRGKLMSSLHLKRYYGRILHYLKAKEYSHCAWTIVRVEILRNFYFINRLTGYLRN

B1: CTI-AF1 (antibody, human IgG1, kappa, V domains shown)
VH: QVQLVQSGAEVKKPGSSVKVSCKASGYTFSRYWMHWVRQAPGQGLEWMGHIDPSDSYTYYNQKFKGRVTITADESTSTAYMELSSLRSEDTAVYYCARWDYGNLLFEYWGQGTLVTVSS
VL: DIQMTQSPSSLSASVGDRVTITCRTSQDIGNYLNWYQQKPGKAFKLLIYSTSRLHSGVPSRFSGSGSGTDFTLTISSLQPEDFATYYCQQGIILPITFGGGTKVEIKR
notes: Humanized IgG1; The C-terminal K of the heavy chain is printed as optional, '(K)'; also called anti-IFNβ antibody; humanized IgG1 antibody against interferon beta
- IC50 (nM), neutralization of type I IFN-induced STAT1 phosphorylation [1]: 3280 nM
- IC50 (nM), neutralization of type I IFN-induced STAT1 phosphorylation [2]: 0.4 nM
- IC50 (nM), neutralization of type I IFN-induced STAT1 phosphorylation [3]: 0.4 nM
- binding result [4]: no binding
- Response rank (Octet) [5]: 1 rank
